assay: soluble on expression in E. coli; label from the status in PepcDB or PDB records

Sequence	soluble on expression in E. coli
MEENKQRVKSMINILQLVAPGTPLREGIDNVLRAQTGGLIVLGYNEQIKSIVDGGFHINCAFSPASLYELAKMDGALILNETGSKILIANAQLVPDSSIDSIETGMRHRTAERVAKQTGSLVVAISQRRNVITLYQGNLRYTLKDIGVILTKANQAIQTLEKYKAVWNDGITNLGILEFEEVVTMSEVVHVLHSVEMVLRIKNEILSYIHELGTEGRLIRLQLTELLADLEAEAALLIKDYHQEKTQDHHQILKKLQDLANTQLLEDSDLVKLLGYPGQTSLEESVTPRGYRITSKISRVPPLIIENLINRFKTLQGVCRATINELDDVEGIGEVRAKKIREGLKRIQEHLYMSRHN	not soluble
MEEPEEPADSGQSLVPVYIYSPEYVSMCDSLAKIPKRASMVHSLIEAYALHKQMRIVKPKVASMEEMATFHTDAYLQHLQKVSQEGDDDHPDSIEYGLGYDCPATEGIFDYAAAIGGATITAAQCLIDGMCKVAINWSGGWHHAKKDEASGFCYLNDAVLGILRLRRKFERILYVDLDLHHGDGVEDAFSFTSKVMTVSLHKFSPGFFPGTGDVSDVGLGKGRYYSVNVPIQDGIQDEKYYQICESVLKEVYQAFNPKAVVLQLGADTIAGDPMCSFNMTPVGIGKCLKYILQWQLATLILGGGGYNLANTARCWTYLTGVILGKTLSSEIPDHEFFTAYGPDYVLEITPSCRPDRNEPHRIQQILNYIKGNLKHVVIEGRGSHHHHHH	soluble
MEESIMSIKVDMSLDCKGLACPMPIVKTKKAIEGLAPGQVIEVKATDKGSTIDIKSWASKVGHQYIGTKHEGDVLVHYVRKANEHEVNEVVKYPHTITNAELQSILSHGEESIVLDVREAAEFAFGHIPSAISVPLGELDSAVLDETKRIYVICRTGNRSDVACHMLKEKGYANVKNVIPGMLEWKGNVEK	not soluble
MEEVKDDKTYKGFVDRLTLGITRVLENLPGVLDVRFVEKAPAEKRCLLSWEQKNNCALPEDLRDFYLTTDGFMLAWNSKLENEVVPVGCMMINNVAQLRPLIQSNVYCLPNAPTLADLDFDDDIDGSDGPEKPHFDLRSRIFELDSCNGNGKVCLVYKSCSPGVMAQQCEVWFLDRSLFWHYLTPSFTAYYRLMITHLGLPEWQYNFTPYGPSPQAKQWAALYQPLTFHSDPHLDTSSEPFLNKLDPTKAFRGKAKPPTPKKKQPAQVPASGTGTAKGQGLSGRHSVAKR	soluble
MEFGASFAYRRIDAHVEATLQEAAQVLEKLVIERDAESAITVASQGTPDAISITQAAHETISIDSILRSSKQPKATIRTPRDSNKNRKLTFPPARIGFKSEQLETCDSGITDSTIDQDPPTPDSLFPSAIYIPAKQKPQMTVSISATTASSCSNKSLYRKHIEKLAIEPLEDIKHLKCRGLKKSKPDDLFPKATYDAGTGKPKMALSPSSMVSVDLSYASTTAKSNSLAYQPMEFVSSDGRVKLWLQPLEKQKKKNSEKSKKRERCIDDAPIPPKQLQSSTKLNIENRTKFSTNLSIGDHVIDLSGILNGSMKKKNLAKLVINGQSYSI	not soluble
MEFTGDLGLGHVTIRASTSSNIRSEVLMEGEYGFIGKSIPTDNPAGQRIIFCGGEGTSSTTGAQITLYGANNTDSRRIVYNGDEHLFQSADVKPYNDNVTALGGPSNRFTTAYLGSNPIVTANGERKTEPVVFDDAFLDAWGDVHYIMYQWLDAVQLKGNDARIHFGVIAQQIRDVFIAHGLMDENSTNCRYAVLCYDKYPRMTDTVFSHNEIVEHTDEEGNVTTTEEPVYTEVVIHEEGEEWGVRPDGIFFAEAAYQRRKLERIEARLSALEQK	soluble
MEGNQAGSSLDSLIASFNKRIGELQELVIARNMYPASTIPDLSAIDTALSSMELQVQSIKDRLREETEAIPKAKKLIEASLKQQGKLQKMSIYAPSHFPDKATMLNSDLNRCLLQENAKQYEQHSTLSSLKFDEEAAVLPKEKKGRGSPPLWYITVEELNSLSSYMRGRLTLEKVNAAINDMASYAEANAHLIAASKQKLAENLWEKALKLRDIVTEQAVKGKHFFLETDMKGPSLKLDNTGKAILTVLRHLGRISETRIGQNRVIILMKPH	soluble
MEGPLSKWTNMVHGWQYRWFKIENDTLLYYTSREKMLKGQQRGQIRLTGAVVGIDGENNSLFTITVEGKTFHMQGRDLRERNQWVRILENSIRASSGYAKNVSVGTTPSQHFKQRTEEANEFLKTLVEKVKALEQLKSGERAVDEKKTIDSLIAASNNLTNNVKHAIIYLQMAQARLDPNMKTEKLMFTHPDLNEKPSSRETPGTVSDSTQTSTDKPISGIQHLDHLKPQRAESYASSDEEEFYDADEELIDLDNFESEKSGQESGDSNRTSDAAIMSSDEDGYDFGDSNEDFDEIYNNAEEHDIGNVQQDHGSVLMHLLSQVSVGMDLTKVTLPTFILERRSLLEMYADFFAHPDLFIATNGNDSAEKRMIAVVRYYLNSFYAARKSGVAKKPYNAILGETFRCRYSVPNSSLSGKKTESGPWPGSDEKQLTFIAEQVSHHPPISAFYAEMPSEGISFNAHIYTKSSFLGLSIGVASIGEGILTLHNYGDEQYTITFPSGYGRSIMSTPWFEFGGKVKVECEKTGYRADIEFLTKPFFGGKPHRIQGSICRDGAKKPVLTLRGEWNGTMYAKTQNGEEYVFVDVKAKPEVKKECVPVMQQGKRESRRLWRHVTAALLRNRIQTATTSKRFIEQRQRKEAKERLESGEKWTPLLFDTTDKDGEWMYKQKFGVRKAV	not soluble
MEHRYRTNLKKVFLSDSELNQLNINIDQSGCKSFSEYARRTLLDPGMNFITIDTNGYQDLVFELKRIGNNINQIARSVNQSQLISGEELQELKKGIGELIKEVDKEFNLQAQKLKEFHGHH	not soluble
MEIANKRAWREYISYEIIRLQMHQILTLFLLALAASPSQAVTDRSCGSDLSRLWLDIVFVVDNSKNMNLYNVYNTISNLFNPFVQIGTGYDDPRSTRVGFITYNWNATDVADFYKLQSYSDLSSQIQALSVTPLSRADETYIDTGLQAAINMINATGGLRDNYKKVVVLFTSKYNYYHTYPEDLTDYLKSTGVTIITVNTGGDSYTTQSLRDKIASKGMAFAMSDGNTTAELQKAVLAINCFCRPGWMQYHYPLKSDNIYSNYGVCLYRPDSAMTKFAAQSYCHSLTTNGYLVSELDQQKRAFNWDYLNSKGITINAFYNGLTNYNGTWWWDQPSGQPLWPLNPNSGAPPQRSGCVVDMKYSDGSISWTPISCTSFFRFLCESVACDTDNYCEF	not soluble
MEIDKEILKRCKKYDRASFSQLFHLYEKYLYNLCYGYTQNTSDAMDLVQEIYIKVFKNIKNFDENLPFHPWVRKISVNTCLNFKRDNRGNVMSLNSKYYDSEFEEEDRLAEDYNMEQEVVNRINNEVVKESIKKLTYDYRMVIMLRYYEDLSYDEIASVLDMPIGTVKTKIYRAKNVLKKSLEKKLEVKK	not soluble
MEIEVKFRVNFEDIKRKIEGLGAKFFGIEEQEDVYFELPSPKLLRVRKINNTGKSYITYKEILDKRNEEFYELEFEVQDPEGAIELFKRLGFKVQGVVKKRRWIYKLNNVTFELNRVEKAGDFLDIEVITSNPEEGKKIIWDVARRLGLKEEDVEPKLYIELINGLEHHHHHH	soluble
MEKDAQAGEPEEEEVDDELSSTDLYEDSMAEVTLNETRGGHDSDPFDRSGEYDEDVDLAAPPPITPDIPEIPADVLISLKNRAEGTAIDLKNLKNPFDDSQKVDESEVEAPLK	soluble
MEKIGETMAKLGQNTRVNSDQLIQTILADPEVASFISQHHLSQEQINLSLSKFNQFLVERQKYQLKDPSYIAKGYQPILAMNEGYADVSYLETKELVEAQKQAAISERIQLVSLPKSYRHIHLSDIDVNNASRMEAFSAILDFVEQYPSAEQKGLYLYGDMGIGKSYLLAAMAHELSEKKGVSTTLLHFPSFAIDVKNAISNGSVKEEIDAVKNVPVLILDDIGAEQATSWVRDEVLQVILQYRMLEELPTFFTSNYSFADLERKWATIKGSDETWQAKRVMERVRYLAREFHLEGANRRLEHHHHHH	soluble
MEKKVEAILEFDKIKKQLAEFASSSLGEQAIYELAPATDFQVVQKAQLETEEGAKIIRLRGSAPITGLTDVFAHLKRLEIGGDLNGLEIYQIGSNLRVSRQMKNFMNDLLEIGVEIPLLGALSDELLVLKDVEEDIAISIDESGKILDTASEALSSIRRTLRRTEDRVREKLESYLRDRNASKMLSDAVITIRNDRYVIPVKQEYKGHYGGIVHDQSASGQTLFIEPQSVVDLNNERKALQAKEKQEIERILAEISASLAGWINEIHHNTFILGRFDFILAKARFGKALKAVTPHLSDTGIVHLIAARHPLLDAEKVVANDIYLGEDFSTIVITGPNTGGKTITLKTLGLLTLMAQSGLQIPAQEDSTIAVFENVFADIGDEQSIEQSLSTFSSHMTNIVSILEKVNHKSLILYDELGAGTDPQEGAALAIAILDASHKKGASVVATTHYPELKAYGYNRAHATNASVEFNVETLSPTYKLLIGVPGRSNAFDISRRLGLSESIITEARSLVDTESADLNDMISSLEEKRNLAEREYEEARELARGADALLKDLQKEITNYYQQKDKLLEQANEKAAGIVEKAETEAEEIIHELRTMQLNGAAGIKEHELIDAKTRLGKAKPKTINKAIPKAPKQKPHVFQAGDNVRVLSLGQKGTLLNKISDKEWNVQIGIIKMKIKTTDLEYIEPEKPKKQRIITSVHSSDSPAKSELDLRGERYEDAIQKVDKYLDEALLAGYPQVAIIHGKGTGALRTGVTEYLKNHRMVKSIRFGAAAEGGNGVTIVEFKLEHHHHHH	not soluble
MEKMIITAAICGAEVLKEHNPAVPYTVEECVREAKSAYDAGASIIHLHVRYDDGTPTQDRNRFKEVMEAIKAVCPDVIIQPSTGGAVGMTNDERLQPTELFPEMATLDCGTLNFGGDEVFTNTENTIKYFGEKMIERGIKPELEVFDKSMIDMALRLHRKGYIQSPMHFDFVMGVNGGISGEMRDFVFLRESIPADATYTVAGVGRYEFPLAALAIIDGGHVRVGFEDNVYISKGVLARSNGELVEKVVRMAKEMGREIATPAEARRILGLSK	soluble
MEKNWYVVHTYSGYENKVKANLEKRVESMGMQDKIFRVVVPEEEETDIKNGKKKVVKKKVFPGYVLVEIVMTDDSWYVVRNTPGVTGFVGSAGSGSKPTPLLPGEAETILKRMGMDERKTDIDFELKETVKVIDGPFANFTGSIEEIDYDKSKVKVFVNMFGRETPVELEFTQIDKL	soluble
MEKPDINVAEAWEQYWNKTLVNATPVLWDANVERAVVVDLPRFQSFFDTELPLIDFACGNGTQTKFLSQFFPRVIGFDVSKTALEMASKENTAANISYRLLDGLVPEQAAQIHSEIGDANIYMRTGFHHIPVEKRELLAQSLRTLLGKQGVMYLIELGTGCIEFFNSLLEKYGKLPYELSLVMEHGIRPGIFTTEDIELYFPDFEILSQGESLFQSIHKLPDGNYATPPAFWAVIKRHLEHHHHHH	soluble
MEKSYMKHELWGDGDFQEDDVWDVLDGYQSPFMISSNHTTKPSFSTQTLLPSEPRMIPERQRTEGMAPMRQQSVPVNVPDWSMVQRKKTKKVVDDENVSPEEYFLRRSRSSSSSSVMEGVGRKLKGRDLSKVRNAILKQTGFLE	soluble
MELAYVDAKKEEFDTLDKNHDGKVSLAEYEEHFHEASSKNEKSRTAYFAKVFEDFDEDFNMALSREELERVLAERFLVKPRENFPKLFFKFDVDKSGGLDLTEYMKFDAEFPFDQTDPVGGGPSKSNNHHDQMHTEVPQDADAAAIAAVLAQASPTLNKSPVGVAPPQTSPGLHPVAPGLFQTAVPIKKV	soluble
MELDDFDPEDKEILSWDINDVKLPQNVKTTDWFQEWPDSYVKHIYSSDDRNAQRHLSSWAMRNTNNHNSRILKKSCLGVVVCSRDCSTEEGRKIYLRPAICDKARQKQQRKSCPNCNGPLKLIPCRGHGGFPVTNFWRHDGRFIFFQSKGEHDHPRPETKLEAEARRAMKKVHM	soluble
MELDVKFEEKDLQHIRQVFSRLRGLGKSDGLTRKMASVLQEDAEDAFAMERTPDGVKWRDLSPKYKKQRYNKGYTGNILQRHGDLAGSLNIAYGDNFAAVGVAEHYGEYHQLGTKKMSARPFLGISEDGVEEIKEILNNAIRRALRD	not soluble

Reference: the DeepSol protein solubility set
